Results taken from US20030027338A1 (BROOKHAVEN SCIENCE ASSOCIATES, published 2003).
Numbering of substitutions follows the chain as printed.

T1: Ad12 knob mutant P417E/P418A (his-tagged) (adenovirus serotype 12, UniProt P36711 401-587)
T1 construct: range 401-587; AB loop; also called double substitution P417E/P418A; not shown: pET15b vector-encoded N-terminal hexahistidine tag
T1 sequence: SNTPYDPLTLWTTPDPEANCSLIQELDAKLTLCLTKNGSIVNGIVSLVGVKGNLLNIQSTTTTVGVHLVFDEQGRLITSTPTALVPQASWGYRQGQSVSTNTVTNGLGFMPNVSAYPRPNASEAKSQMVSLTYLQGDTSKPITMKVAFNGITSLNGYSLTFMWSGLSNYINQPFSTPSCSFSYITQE

T2: his-tagged Ad12 knob (wild type) (adenovirus serotype 12, UniProt P36711 401-587)
T2 construct: range 401-587; Cloned between the NdeI and BamHI sites of pET15b; tag left on; also called Purified, his-tagged Ad12 knob; wild-type his-tagged knob protein; not shown: pET15b vector-encoded N-terminal hexahistidine tag
T2 sequence: T1 sequence with E17P, A18P

B1: his-tagged D1/D2 (refolded entire extracellular region of human CAR, IgV+IgC2 domains) (receptor)
chain: MGITTPEEMIEKAKGETAYLPCKFTLSPEDQGPLDIEWLISPADNQKVDQVIILYSGDKIYDDYYPDLKGRVHFTSNDLKSGDASINVTNLQLSDIGTYQCKVKKAPGVANKKIHLVVLVKPSGARCYVDGSEEIGSDFKIKCEPKEGSLPLQYEWQKLSDSQKMPTSWLAEMTSSVISVKNASSEYSGTYSCTVRNRVGSDQCLLRLNVVPPSNKAG
notes: range 20-237; also called CAR D1/D2; CARD1/D2; not shown: pET15b vector-encoded amino-terminal hexahistidine tag
B2: his-tagged D1 (refolded amino-terminal IgV domain of human CAR) (receptor)
chain: MGITTPEEMIEKAKGETAYLPCKFTLSPEDQGPLDIEWLISPADNQKVDQVIILYSGDKIYDDYYPDLKGRVHFTSNDLKSGDASINVTNLQLSDIGTYQCKVKKAPGVANKKIHLVVLVKPSGA
notes: range 20-144; also called CAR D1; CARD1; not shown: pET15b vector-encoded amino-terminal hexahistidine tag
B3: biotinylated CARD1 protein (receptor)
chain: B2 chain with M1L, G2S
modifications: biotinylated with sulfo-NHS-LC biotin (sites not given)
notes: domain: D1
B4: sD1 (soluble D1 of human CAR with 22 amino acid carboxy-terminal extension) (receptor)
chain: MGITTPEEMIEKAKGETAYLPCKFTLSPEDQGPLDIEWLISPADNQKVDQVIILYSGDKIYDDYYPDLKGRVHFTSNDLKSGDASINVTNLQLSDIGTYQCKVKKAPGVANKKIHLVVLVKPSGALEDPAANKARKEAELAAATAEQ
notes: range 20-144; No hexahistidine tag; Used as a partially purified preparation; also called pET15b-sD1 product
B5: Ad12 knob (recombinant adenovirus type 12 fiber knob domain, his-tag removed by thrombin) (other)
chain: T1 sequence with E17P, A18P
notes: range 401-587; Expressed from pET15b in E. coli; The hexahistidine tag was cleaved with thrombin; Trimer by SDS-PAGE, STEM (60.6 kDa) and gel filtration; also called Ad12 fiber knob

Experiments:
[1] = molecular target: T3, purified Ad2 hexon protein (adenovirus type 2, UniProt P03277 2-968); test: Ni-NTA pull-down with his-tagged D1/D2, SDS-PAGE of bead eluate
T3 construct: Included as a specificity control in the pull-down
T3 sequence (P03277 2-968 limits assumed): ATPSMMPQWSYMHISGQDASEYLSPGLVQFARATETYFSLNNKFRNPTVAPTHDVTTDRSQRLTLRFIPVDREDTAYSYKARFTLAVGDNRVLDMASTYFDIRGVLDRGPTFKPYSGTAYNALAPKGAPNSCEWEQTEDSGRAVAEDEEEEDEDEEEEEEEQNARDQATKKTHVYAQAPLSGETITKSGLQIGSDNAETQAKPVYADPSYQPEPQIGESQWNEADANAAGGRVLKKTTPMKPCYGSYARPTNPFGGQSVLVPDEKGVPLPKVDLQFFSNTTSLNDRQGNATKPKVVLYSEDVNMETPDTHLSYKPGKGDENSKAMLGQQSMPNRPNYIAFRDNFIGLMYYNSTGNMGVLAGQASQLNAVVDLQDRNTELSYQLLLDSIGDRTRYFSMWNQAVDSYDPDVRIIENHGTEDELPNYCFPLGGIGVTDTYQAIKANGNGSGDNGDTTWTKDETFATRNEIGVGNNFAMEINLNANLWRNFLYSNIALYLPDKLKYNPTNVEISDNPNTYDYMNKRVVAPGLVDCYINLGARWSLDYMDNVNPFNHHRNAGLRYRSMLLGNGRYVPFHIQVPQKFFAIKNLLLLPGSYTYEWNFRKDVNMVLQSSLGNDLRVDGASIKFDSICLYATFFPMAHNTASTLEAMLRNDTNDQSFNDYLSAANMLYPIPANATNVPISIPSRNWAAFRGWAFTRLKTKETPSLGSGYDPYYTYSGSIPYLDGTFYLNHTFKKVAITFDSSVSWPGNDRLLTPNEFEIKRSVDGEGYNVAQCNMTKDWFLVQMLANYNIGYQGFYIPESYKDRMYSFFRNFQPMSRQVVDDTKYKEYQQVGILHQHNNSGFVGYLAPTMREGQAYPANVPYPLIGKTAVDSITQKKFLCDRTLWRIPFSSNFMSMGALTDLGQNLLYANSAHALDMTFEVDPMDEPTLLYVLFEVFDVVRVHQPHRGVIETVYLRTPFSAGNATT

[2] = molecular target: T3, purified Ad2 hexon protein; test: Ni-NTA pull-down with his-tagged D1, SDS-PAGE of bead eluate
[3] = molecular target: T1, Ad12 knob mutant P417E/P418A …; test: dot blot: his-tagged knob on nitrocellulose (5 µg per dot) probed with biotinylated CARD1, chemiluminescence; text: abrogated CARD1 binding
[4] = molecular target: T2, his-tagged Ad12 knob (wild type); test: Ni-NTA column capture of his-tagged knob mixed with sD1, EDTA elution, SDS-PAGE
[5] = molecular target: B1; test: Ni-NTA pull-down with his-tagged D1/D2, SDS-PAGE of bead eluate

B1
binding result [1]: no binding

B2
binding result [2]: no binding

B3
binding result [3]: no binding (tested: 5 µg/ml biotinylated CARD1)

B4
binding result [4]: binds

B5
binding result [5]: binds
